Laboratory results from patent US6635431.

Assays:
[1] = molecular target: α subunit of rat LSR (product of cDNA LSR-Rn-2097) (rat) (UniProt Q9WU74); assay: flotation of 35S-labelled in vitro translated LSR with 100 µg/ml LDL and 1 mM oleate, against no oleate
[2] = molecular target: β subunit of rat LSR (product of cDNA LSR-Rn-1893) (rat) (UniProt Q9WU74); assay: as above
Chain of β subunit of rat LSR (product of cDNA LSR-Rn-1893) (rat) (Q9WU74 other isoform, or with tags, fused parts or gaps limits assumed): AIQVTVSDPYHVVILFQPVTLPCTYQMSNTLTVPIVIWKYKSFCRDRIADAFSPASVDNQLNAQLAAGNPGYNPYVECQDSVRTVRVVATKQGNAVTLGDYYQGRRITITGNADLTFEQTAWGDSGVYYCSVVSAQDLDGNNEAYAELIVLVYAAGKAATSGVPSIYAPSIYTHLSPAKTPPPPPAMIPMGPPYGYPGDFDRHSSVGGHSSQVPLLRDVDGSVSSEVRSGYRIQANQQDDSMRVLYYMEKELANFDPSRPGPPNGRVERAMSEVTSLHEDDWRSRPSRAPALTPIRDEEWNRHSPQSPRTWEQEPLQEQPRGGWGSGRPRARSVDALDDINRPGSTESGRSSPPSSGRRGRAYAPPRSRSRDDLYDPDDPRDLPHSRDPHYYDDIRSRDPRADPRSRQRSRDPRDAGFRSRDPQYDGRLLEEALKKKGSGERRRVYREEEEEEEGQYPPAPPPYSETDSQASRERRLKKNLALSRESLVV

Chain of α subunit of rat LSR (product of cDNA LSR-Rn-2097) (rat) (Q9WU74 36-593 limits assumed): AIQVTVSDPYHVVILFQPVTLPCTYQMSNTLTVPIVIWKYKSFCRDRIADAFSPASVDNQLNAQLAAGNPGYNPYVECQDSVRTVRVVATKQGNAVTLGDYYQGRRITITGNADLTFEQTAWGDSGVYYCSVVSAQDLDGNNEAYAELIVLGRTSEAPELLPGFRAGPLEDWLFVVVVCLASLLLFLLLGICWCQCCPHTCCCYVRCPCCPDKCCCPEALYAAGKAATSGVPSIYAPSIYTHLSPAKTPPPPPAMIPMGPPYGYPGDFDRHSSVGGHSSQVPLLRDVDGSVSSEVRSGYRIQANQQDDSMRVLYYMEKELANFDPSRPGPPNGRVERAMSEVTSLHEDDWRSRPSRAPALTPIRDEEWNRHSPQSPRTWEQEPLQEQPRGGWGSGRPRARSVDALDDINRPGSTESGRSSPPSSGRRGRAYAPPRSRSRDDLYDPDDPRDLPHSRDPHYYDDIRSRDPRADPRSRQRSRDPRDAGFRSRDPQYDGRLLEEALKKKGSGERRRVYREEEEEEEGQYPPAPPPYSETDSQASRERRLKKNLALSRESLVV

factor of increase of LDL binding by oleate [1]: 5 fold
factor of increase of LDL binding by oleate [2]: 2 fold
Substance: LDL (low-density lipoprotein, 1.025<d<1.055 g/ml) isolated from plasma of volunteers, P04114 28-4563
